{"source": "the supplement of paper PMC9170038"}
{"tested_on": "K4 kissing-loop RNA reporter", "test": "apparent KD of K4 kissing-loop reporter; higher = weaker reporter binding", "details": "Eterna round: R107; input ligand: arginine 13.2 mM", "description": "(§1)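 RNA-MaP round R107: designed RNA switches with theophylline, tryptophan, arginine or FMN aptamers are transcribed on-chip within common flanks. They are titrated with a labelled K4 kissing-loop RNA reporter in RNA-MaP buffer (100 mM Tris pH 7.5, 80 mM KCl, 4 mM MgCl2), without ligand or with the indicated ligand. Median apparent KD per design.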", "units": {"apparent KD of K4 kissing-loop reporter": "nM"}}
{"sequence": "UGUAUGUGAUUUGAUACCAGACCAGGUGGAGGAAUCUGAGUGAUGUUCAGGUAGGUUUGGGUCCCUUGGCAGCAAAUCGCAUACU [KL-SSTheoB18]", "apparent KD of K4 kissing-loop reporter": 136}
{"sequence": "UGAUACCAGACGGCCGCCACUUCUGCAAGUCAAAGACUUGCUAAAGGAAUCGUCCAGUGAUGUUGGAGGACCGGGUCUGGUAUCU [FiskerMod 1 - Jieux - Exclusion - Tryptophan B]", "apparent KD of K4 kissing-loop reporter": 823}
{"sequence": "AAGGUUCGUGGAAGGAGCGCCCGUGCGACUCGUUCAGUAAGUGAAGUCCGAGUGAUGUUCGGGCAGGUAGGUCGCCACGGGCAAA [Usontezaon]", "apparent KD of K4 kissing-loop reporter": 137}
{"sequence": "UUUAUAAUGUCGGCCGCCACUGGAUUAAUAUUUGUAUAAUCUAGUUCUAAGUGAUGUUUAGAGUCCAGGACCGGGACAUUUGUUA [#09 K4 Tryptophan B Exclusion]", "apparent KD of K4 kissing-loop reporter": 282}
{"sequence": "GCUAUGGUUGGAAGGAGCGUUGAAUUGUUAGUAAGAGUGAUGUUCGAUAGUGGACAGUUGUAGCAGGUAGGUCGCCAACUAUAGC [KL-Arg B28]", "apparent KD of K4 kissing-loop reporter": 570}
{"sequence": "AACCACUCGUUACAUCACUAUCGAGUGGAACGAGGACCGGUACGGCCGCCACUCGAUUAGAUGCAGUGAUGUUGCAUCUUAGAAU [KL-SSTryp-A (BrourdMod)3 #dotplot2 strengthened]", "apparent KD of K4 kissing-loop reporter": 163}
{"sequence": "AAACGCUGGUGAAUAACACUAGCGAAUUCGCGAGGACCGGUACGGCCGCCACUCGCUAACUGCGAGUGAUGUUCGAUAAUAAAAU [Mat - Mod of OpenEnded 3 - D2]", "apparent KD of K4 kissing-loop reporter": 107}
{"sequence": "CUGAUGCUGAUGCGGUGGCCGGUGGUCGUGCGAGGACCGGUACGGCCGCCACUCGCAUGAGUGAUGUUCAUGUGUCGUCGUCGUC [#04 K4 Tryptophan A Exclusion]", "apparent KD of K4 kissing-loop reporter": 133}
{"sequence": "AGUGGACGUGUCCGGAGUGAUGUUCCGGAUACCAGACACGAAAGUGUCCCUUGGCAGCCGGAGUAAAGUUCCGGCGUUCACUAAA [#26 K4 Theophylline A Exclusion]", "apparent KD of K4 kissing-loop reporter": 77.8}
{"sequence": "AGAGUUAUAUGAGGAUAUGAGAUAGUUAAUGAGUGAGUUAUAGUGUAGUUUGGUUAGUGAUGUUAUUUAGAAGGCGUGAGUGAUG [reefmullin]", "apparent KD of K4 kissing-loop reporter": 76.5}
{"sequence": "AAAUCGUUCAGAAGGAGCGUGGUAUAAUCAUUAAUAUUUAUUACGAGUGAUGUUCGUAAUUCACAGGUAGGUCGCUGAUCGAUAA [JR_SSArginiB_Sub006]", "apparent KD of K4 kissing-loop reporter": 94.6}
{"sequence": "GGUGUUGUUUGUGCCGCCUUCCUCGUUCCUCGAGGACCGGUACGGCCGCCACUCGAGUGAUGUUUGGGUAGCGAUCCCUGUUAGU [Bdazzled - #11 Exc. Tryptophan A]", "apparent KD of K4 kissing-loop reporter": 573}
{"sequence": "AUCUAUGAGCGAGGAUAUGCAUGACGCGAGUGAUGUUCGCGAUGUGGGCGUGAUUAGUAAUAUGAAGCAGAAGGCGCACUCAUGA [Exclusion - FMW B / A]", "apparent KD of K4 kissing-loop reporter": 111}
{"tested_on": "K4 kissing-loop RNA reporter", "test": "apparent KD of K4 kissing-loop reporter; higher = weaker reporter binding", "details": "Eterna round: R107; input ligand: none", "description": "as §1", "units": {"apparent KD of K4 kissing-loop reporter": "nM"}}
{"sequence": "UGAUAGGACAGAAGGAGCGGAGCUGGUCAAAGACCAGCAAUACGUUAAAUAGGAGUGAUGUUCCAGGUAGGUCGCUGUCCUAUCU [ArgBX 28 #SwitchBubble #StaticStem]", "apparent KD of K4 kissing-loop reporter": 121}
{"sequence": "UGUCAUUGGUCGGCCGCCACUUCAUAAAGAGUGAUGUUCUGAAAGACGGAUCGAAAGAUCUGUCGAAGGACCGGGACCGAUGACU [FiskerMod 1 - Jieux - Same State - Tryptophan B]", "apparent KD of K4 kissing-loop reporter": 2080}
{"sequence": "CUCGUGGGUUUGAGAGGGCUUGUGGGAAGAUAGGAUAUCUAGGGAGGGAGAAGGAUCUAUAGAAUAUAGUGAUGUUAUAUAUGGG [#05 K4 FMN A Same State]", "apparent KD of K4 kissing-loop reporter": 87.7}
{"sequence": "UUAGUUGAAAGUGAUACCAGACAAGUUAAGAGAAGAAAUUAAGUUGGAGUGAUGUUCCAAGUCCCUUGGCAGCACAUUGUAAUUU [Same State Theophylline B GF12]", "apparent KD of K4 kissing-loop reporter": 129}
{"sequence": "AGGUCCGAGCCCGCAAGGGCUCGGACCUGUUAGGAUAUGACGUUAUUCAGAAGGGAUGGGUGGAGUGAUGUUCCACCCGCGAGGG [#2 Same State - FMN A Attempt #12 (HarryS)]", "apparent KD of K4 kissing-loop reporter": 202}
{"sequence": "GGUUUAUAGGAGGAUACCAGUACAAAUAAAGUACAUUAAUAGUAGAGUGAUGUUCUAAAGUACCCUUGGCAGCUUAGAUUAAGUU [ExTheophylB.G]", "apparent KD of K4 kissing-loop reporter": 111}
{"sequence": "GGGCGUGGCGCGGCCGCCACUGGGCCUGGGCGCUCGCUGAGUGAUGUUCGUCGGCGGUUGGGUCGUAGGACCGGGUGCUGGUUGG [BDazzled - #8 SS Tryptophan B]", "apparent KD of K4 kissing-loop reporter": 516}
{"sequence": "UGAUACCAGACUGAUACCAGCGAGUGAUGUUUGCUGAUCUAAAGCAGUCAAAGACUGCCUUGCCCUUGGCAGCAGUCUGGUAUCU [TheoBX 26 #SwitchBubble #StaticStem]", "apparent KD of K4 kissing-loop reporter": 275}
{"sequence": "AGAACUGUCUUGGAUACCAGUGAUGUUGGUAUCGAUGUGUGAGUGCAAAGCGUCCCACAUUGCCCUUGGCAGCUAAGACUGUUCA [Omei KL Theo B Exc A v3]", "apparent KD of K4 kissing-loop reporter": 148}
{"sequence": "UGCAUGCGUAGAGUGAUGUUCUAAGAUGAUACCAGUGCGGAAACGCACCCUUGGCAGCAUCUGACUGCAUGCACGUCGAAAGACG", "apparent KD of K4 kissing-loop reporter": 826}
{"sequence": "AGUGAUGUGGGAAGGAGCGCUAGUACACUUCAGUGAUGUUGAAGUGAUGAAUUAGUGUAUUGGCAGGUAGGUCGCCUAGAUGUUA [KL-XARG-B14]", "apparent KD of K4 kissing-loop reporter": 82.9}
{"sequence": "UUGUUUGGUUGAGAGGUUGGGCGAAAUGAUACCAGUAUAUAAGAAUACCCUUGGCAGCAUAAGAAAGAUAUAGUGAUGUUGUAUA [SSTheophA.L]", "apparent KD of K4 kissing-loop reporter": 431}
{"sequence": "GUUAUAUAAAUAAGAAAUAAAAUAAGGGAAGGAGCGCCGAGAAAGGCAGGUAGGUCGCCCAGUGAUGUUGGGAUUAAUUAAUUAG", "apparent KD of K4 kissing-loop reporter": 39.3}
{"sequence": "UGUAUGUGAUUUGAUACCAGACCAGGUGGAGGAAUCUGAGUGAUGUUCAGGUAGGUUUGGGUCCCUUGGCAGCAAAUCGCAUACU [KL-SSTheoB18]", "apparent KD of K4 kissing-loop reporter": 149}
{"sequence": "UGAUACCAGACGGCCGCCACUUCUGCAAGUCAAAGACUUGCUAAAGGAAUCGUCCAGUGAUGUUGGAGGACCGGGUCUGGUAUCU [FiskerMod 1 - Jieux - Exclusion - Tryptophan B]", "apparent KD of K4 kissing-loop reporter": 1170}
{"sequence": "AAGGUUCGUGGAAGGAGCGCCCGUGCGACUCGUUCAGUAAGUGAAGUCCGAGUGAUGUUCGGGCAGGUAGGUCGCCACGGGCAAA [Usontezaon]", "apparent KD of K4 kissing-loop reporter": 160}
{"sequence": "UUUAUAAUGUCGGCCGCCACUGGAUUAAUAUUUGUAUAAUCUAGUUCUAAGUGAUGUUUAGAGUCCAGGACCGGGACAUUUGUUA [#09 K4 Tryptophan B Exclusion]", "apparent KD of K4 kissing-loop reporter": 300}
{"sequence": "GCUAUGGUUGGAAGGAGCGUUGAAUUGUUAGUAAGAGUGAUGUUCGAUAGUGGACAGUUGUAGCAGGUAGGUCGCCAACUAUAGC [KL-Arg B28]", "apparent KD of K4 kissing-loop reporter": 277}
{"sequence": "AACCACUCGUUACAUCACUAUCGAGUGGAACGAGGACCGGUACGGCCGCCACUCGAUUAGAUGCAGUGAUGUUGCAUCUUAGAAU [KL-SSTryp-A (BrourdMod)3 #dotplot2 strengthened]", "apparent KD of K4 kissing-loop reporter": 165}
{"sequence": "AAACGCUGGUGAAUAACACUAGCGAAUUCGCGAGGACCGGUACGGCCGCCACUCGCUAACUGCGAGUGAUGUUCGAUAAUAAAAU [Mat - Mod of OpenEnded 3 - D2]", "apparent KD of K4 kissing-loop reporter": 154}
{"sequence": "CUGAUGCUGAUGCGGUGGCCGGUGGUCGUGCGAGGACCGGUACGGCCGCCACUCGCAUGAGUGAUGUUCAUGUGUCGUCGUCGUC [#04 K4 Tryptophan A Exclusion]", "apparent KD of K4 kissing-loop reporter": 169}
{"sequence": "AGUGGACGUGUCCGGAGUGAUGUUCCGGAUACCAGACACGAAAGUGUCCCUUGGCAGCCGGAGUAAAGUUCCGGCGUUCACUAAA [#26 K4 Theophylline A Exclusion]", "apparent KD of K4 kissing-loop reporter": 111}
{"sequence": "AGAGUUAUAUGAGGAUAUGAGAUAGUUAAUGAGUGAGUUAUAGUGUAGUUUGGUUAGUGAUGUUAUUUAGAAGGCGUGAGUGAUG [reefmullin]", "apparent KD of K4 kissing-loop reporter": 115}
{"sequence": "AAAUCGUUCAGAAGGAGCGUGGUAUAAUCAUUAAUAUUUAUUACGAGUGAUGUUCGUAAUUCACAGGUAGGUCGCUGAUCGAUAA [JR_SSArginiB_Sub006]", "apparent KD of K4 kissing-loop reporter": 86}
{"sequence": "GGUGUUGUUUGUGCCGCCUUCCUCGUUCCUCGAGGACCGGUACGGCCGCCACUCGAGUGAUGUUUGGGUAGCGAUCCCUGUUAGU [Bdazzled - #11 Exc. Tryptophan A]", "apparent KD of K4 kissing-loop reporter": 892}
{"sequence": "AUCUAUGAGCGAGGAUAUGCAUGACGCGAGUGAUGUUCGCGAUGUGGGCGUGAUUAGUAAUAUGAAGCAGAAGGCGCACUCAUGA [Exclusion - FMW B / A]", "apparent KD of K4 kissing-loop reporter": 153}
{"tested_on": "K4 kissing-loop RNA reporter", "test": "apparent KD of K4 kissing-loop reporter; higher = weaker reporter binding", "details": "Eterna round: R107; input ligand: theophylline 20 uM", "description": "as §1", "units": {"apparent KD of K4 kissing-loop reporter": "nM"}}
{"sequence": "UGAUAGGACAGAAGGAGCGGAGCUGGUCAAAGACCAGCAAUACGUUAAAUAGGAGUGAUGUUCCAGGUAGGUCGCUGUCCUAUCU [ArgBX 28 #SwitchBubble #StaticStem]", "apparent KD of K4 kissing-loop reporter": 101}
{"sequence": "UGUCAUUGGUCGGCCGCCACUUCAUAAAGAGUGAUGUUCUGAAAGACGGAUCGAAAGAUCUGUCGAAGGACCGGGACCGAUGACU [FiskerMod 1 - Jieux - Same State - Tryptophan B]", "apparent KD of K4 kissing-loop reporter": 1430}
{"sequence": "CUCGUGGGUUUGAGAGGGCUUGUGGGAAGAUAGGAUAUCUAGGGAGGGAGAAGGAUCUAUAGAAUAUAGUGAUGUUAUAUAUGGG [#05 K4 FMN A Same State]", "apparent KD of K4 kissing-loop reporter": 154}
{"sequence": "UUAGUUGAAAGUGAUACCAGACAAGUUAAGAGAAGAAAUUAAGUUGGAGUGAUGUUCCAAGUCCCUUGGCAGCACAUUGUAAUUU [Same State Theophylline B GF12]", "apparent KD of K4 kissing-loop reporter": 256}
{"sequence": "GGUUUAUAGGAGGAUACCAGUACAAAUAAAGUACAUUAAUAGUAGAGUGAUGUUCUAAAGUACCCUUGGCAGCUUAGAUUAAGUU [ExTheophylB.G]", "apparent KD of K4 kissing-loop reporter": 188}
{"sequence": "GGGCGUGGCGCGGCCGCCACUGGGCCUGGGCGCUCGCUGAGUGAUGUUCGUCGGCGGUUGGGUCGUAGGACCGGGUGCUGGUUGG [BDazzled - #8 SS Tryptophan B]", "apparent KD of K4 kissing-loop reporter": 281}
